Experimental data reported in the supplement of paper PMC9233669.
Fewer inactive variants are shown than the library holds.

Tests used:
[1] = tested on: biotinyl-Val-oxazolone; experiment: self-aminoacylation, catalytic enhancement (BVO) (fold over background); higher = more active; k-Seq, kA / k0A0; sequences stand for … in GGGAAUGGAUCCACAUCUACGAAUUC…UUCACUGCAGACUUGACGAAGCUG
Outline: (§1)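 Mutagenized RNA pools (0.43 μM; 21-nt variable region) were treated with 2–1250 μM of each biotinyl-aminoacyl-oxazolone. Conditions were 50 μL HEPES/NaCl/KCl/MgCl2/CaCl2 buffer, 5% acetonitrile, pH 6.9–7.0, room temperature, 90 minutes. Catalytic enhancement, the median kA relative to the uncatalyzed rate, was derived from streptavidin capture, qPCR and Illumina sequencing.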

[2] = tested on: biotinyl-Phe-oxazolone; experiment: self-aminoacylation, catalytic enhancement (BFO) (fold over background); higher = more active; k-Seq, kA / k0A0; sequences stand for … in GGGAAUGGAUCCACAUCUACGAAUUC…UUCACUGCAGACUUGACGAAGCUG
Outline: as §1

[3] = tested on: biotinyl-Met-oxazolone; experiment: self-aminoacylation, catalytic enhancement (BMO) (fold over background); higher = more active; k-Seq, kA / k0A0; sequences stand for … in GGGAAUGGAUCCACAUCUACGAAUUC…UUCACUGCAGACUUGACGAAGCUG
Outline: as §1

[4] = tested on: biotinyl-Ile-oxazolone; experiment: self-aminoacylation, catalytic enhancement (BIO) (fold over background); higher = more active; k-Seq, kA / k0A0; sequences stand for … in GGGAAUGGAUCCACAUCUACGAAUUC…UUCACUGCAGACUUGACGAAGCUG
Outline: as §1

[5] = tested on: biotinyl-Leu-oxazolone; experiment: self-aminoacylation, catalytic enhancement (BLO) (fold over background); higher = more active; k-Seq, kA / k0A0; sequences stand for … in GGGAAUGGAUCCACAUCUACGAAUUC…UUCACUGCAGACUUGACGAAGCUG
Outline: as §1

[6] = tested on: biotinyl-Trp-oxazolone; experiment: self-aminoacylation, catalytic enhancement (BWO) (fold over background); higher = more active; k-Seq, kA / k0A0; sequences stand for … in GGGAAUGGAUCCACAUCUACGAAUUC…UUCACUGCAGACUUGACGAAGCUG
Outline: as §1

**Q.** With “AUUCACCUAGGUCAUUGGGUC [Fam2.2 aminoacylation ribozyme variant]” as the sequence, how does the self-aminoacylation [1] read?
**A.** 0.867

**Q.** What about the self-aminoacylation [2] of the same sequence?
**A.** 1.09

**Q.** What about the self-aminoacylation [3] of the same sequence?
**A.** 0.808

**Q.** And the self-aminoacylation [4]?
**A.** 0.922

**Q.** And the self-aminoacylation [5]?
**A.** 0.89

**Q.** What about the self-aminoacylation [6] of the same sequence?
**A.** 0.734

**Q.** How did the self-aminoacylation [1] turn out when “AUUCACCUAGGUCAUUGGGUU [Fam2.2 aminoacylation ribozyme variant]” was run?
**A.** 1.19

**Q.** What about the self-aminoacylation [2] of the same sequence?
**A.** 5.73

**Q.** What about the self-aminoacylation [3] of the same sequence?
**A.** 1.34

**Q.** And the self-aminoacylation [4]?
**A.** 1.23

**Q.** And the self-aminoacylation [5]?
**A.** 1.15

**Q.** And the self-aminoacylation [6]?
**A.** 1.52

**Q.** For “AUUCACCUAGGUCAUUGUGUG [Fam2.2 aminoacylation ribozyme variant]”, which self-aminoacylation [1] is on record?
**A.** 0.835

**Q.** What about the self-aminoacylation [2] of the same sequence?
**A.** 0.805

**Q.** And the self-aminoacylation [3]?
**A.** 0.898

**Q.** And the self-aminoacylation [4]?
**A.** 0.871

**Q.** What about the self-aminoacylation [5] of the same sequence?
**A.** 1.03

**Q.** And the self-aminoacylation [6]?
**A.** 0.463

**Q.** For “AUUCACCUAGGUCCUCGGGUC [Fam2.2 aminoacylation ribozyme variant]”, which self-aminoacylation [1] is on record?
**A.** 1.34

**Q.** And the self-aminoacylation [2]?
**A.** 4.38

**Q.** What about the self-aminoacylation [3] of the same sequence?
**A.** 1.51

**Q.** And the self-aminoacylation [4]?
**A.** 1.21

**Q.** And the self-aminoacylation [5]?
**A.** 1.16

**Q.** And the self-aminoacylation [6]?
**A.** 0.77

**Q.** For “AUUCACCUAGGUCCUCUGGUG [Fam2.2 aminoacylation ribozyme variant]”, which self-aminoacylation [1] is on record?
**A.** 2.58

**Q.** What about the self-aminoacylation [2] of the same sequence?
**A.** 31.1

**Q.** And the self-aminoacylation [3]?
**A.** 4.3

**Q.** What about the self-aminoacylation [4] of the same sequence?
**A.** 2.57

**Q.** And the self-aminoacylation [5]?
**A.** 5.9

**Q.** What about the self-aminoacylation [6] of the same sequence?
**A.** 4.56

**Q.** How did the self-aminoacylation [1] turn out when “AUUCACCUAGGUCCUGGGGUG [Fam2.2 aminoacylation ribozyme variant]” was run?
**A.** 4.05

**Q.** And the self-aminoacylation [2]?
**A.** 57.2

**Q.** And the self-aminoacylation [3]?
**A.** 7.35

**Q.** What about the self-aminoacylation [4] of the same sequence?
**A.** 4.6

**Q.** What about the self-aminoacylation [5] of the same sequence?
**A.** 9.12

**Q.** What about the self-aminoacylation [6] of the same sequence?
**A.** 7.11

**Q.** “AUUCACCUAGGUCGUCCGGUG [Fam2.2 aminoacylation ribozyme variant]” was tested. Which self-aminoacylation [1] did it give?
**A.** 2.35

**Q.** What about the self-aminoacylation [2] of the same sequence?
**A.** 14.4

**Q.** What about the self-aminoacylation [3] of the same sequence?
**A.** 3.34

**Q.** And the self-aminoacylation [4]?
**A.** 2.52

**Q.** And the self-aminoacylation [5]?
**A.** 3.89

**Q.** What about the self-aminoacylation [6] of the same sequence?
**A.** 2.39

**Q.** Which self-aminoacylation [1] does the source give for “AUUCACCUAGGUCGUCGGGUG [Fam2.2 aminoacylation ribozyme variant]” here?
**A.** 1.77

**Q.** What about the self-aminoacylation [2] of the same sequence?
**A.** 9.32

**Q.** What about the self-aminoacylation [3] of the same sequence?
**A.** 1.84

**Q.** What about the self-aminoacylation [4] of the same sequence?
**A.** 1.61

**Q.** And the self-aminoacylation [5]?
**A.** 2.09

**Q.** What about the self-aminoacylation [6] of the same sequence?
**A.** 1.66

**Q.** For “AUUCACCUAGGUCUACGGGUG [Fam2.2 aminoacylation ribozyme variant]”, which self-aminoacylation [1] is on record?
**A.** 3.11

**Q.** And the self-aminoacylation [2]?
**A.** 27.6

**Q.** And the self-aminoacylation [3]?
**A.** 4.62

**Q.** What about the self-aminoacylation [4] of the same sequence?
**A.** 3.16

**Q.** What about the self-aminoacylation [5] of the same sequence?
**A.** 4.92

**Q.** And the self-aminoacylation [6]?
**A.** 4.07

**Q.** Which self-aminoacylation [1] does the source give for “AUUCACCUAGGUCUUCGCGUG [Fam2.2 aminoacylation ribozyme variant]” here?
**A.** 3.96

**Q.** And the self-aminoacylation [2]?
**A.** 16.6

**Q.** And the self-aminoacylation [3]?
**A.** 4.3

**Q.** And the self-aminoacylation [4]?
**A.** 2.95

**Q.** What about the self-aminoacylation [5] of the same sequence?
**A.** 4.5

**Q.** And the self-aminoacylation [6]?
**A.** 3.32

**Q.** How did the self-aminoacylation [1] turn out when “AUUCACCUAGGUCUUCGGCUG [Fam2.2 aminoacylation ribozyme variant]” was run?
**A.** 1.87

**Q.** What about the self-aminoacylation [2] of the same sequence?
**A.** 6.94

**Q.** What about the self-aminoacylation [3] of the same sequence?
**A.** 1.8

**Q.** What about the self-aminoacylation [4] of the same sequence?
**A.** 2.12

**Q.** And the self-aminoacylation [5]?
**A.** 2.59

**Q.** What about the self-aminoacylation [6] of the same sequence?
**A.** 1.46

**Q.** “AUUCACCUAGGUCUUCGGGUA [Fam2.2 aminoacylation ribozyme variant]” was tested. Which self-aminoacylation [1] did it give?
**A.** 3.6

**Q.** And the self-aminoacylation [2]?
**A.** 17.4

**Q.** What about the self-aminoacylation [3] of the same sequence?
**A.** 3.75

**Q.** What about the self-aminoacylation [4] of the same sequence?
**A.** 3.31

**Q.** What about the self-aminoacylation [5] of the same sequence?
**A.** 3.22

**Q.** What about the self-aminoacylation [6] of the same sequence?
**A.** 3.79
